From the domain aggregation screens of Martell et al. (2025)

Test: soluble fraction after stress (log2 fold change); higher = more stays soluble; pooled small domains, quantitative proteomics
Details: stress: 50 degC
In short: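 After stress at 50°C, the amount of each protein still soluble was measured. This was done on pooled custom libraries of small protein domains, using high-throughput quantitative proteomics. The figure given is a base-two log fold change and stands for aggregation propensity, with higher values meaning more protein stays in solution.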

In order of falling “soluble fraction (log2)” value:
1. HMDLDLNIDNYNFDDLLNLFGLKMKFSEDDLKKAKRSVLMTHPDKSGLDKQYFMFFTKAYKMLSQIYYFR  0.42
2. HMNQTPQISYSQFIADVRSGQIKDVNIDSDNRTIVGHKFSGEEFTTFSPGDNKLVDELLNYNVEIKTSP  0.411
3. HMKYEGEDEYYASLVTEKIAAIGTVTEESEDAIKEARAAYDALTSAQKKLVTNYDVLDEAEK  0.371
4. HMQVDENNINKRIDKYLSENTEYSRSTIQKMIDNGNITVNSKPTKSSYKLELNDIITIDNNFKE  0.369
5. HMTSMTHLGRHPDSEISLDDISVSRRHAEIERQGHEYVLRDSGSLNGTYVNQQRVDSVVLQQGDEIL  0.234
6. HMKGTVKFFNESKGFGFITEEGTNKEHFVHVSGLVDEIRENDEVEFDLQDGRKGLNAVNVRV  0.231
7. HMGTQIKSPMPGTILDVRVNVGDTVKEGDILMILEAMKMENEILAPVSGKVAAIQVSKGTAVNSGDLLAVL  0.224
8. HMPHILEITSSKILDELQDEKKMVYFHFEKQSNQYVYRLIFNSKNELMEFKKSLEKNSSILDVRADM  0.216
9. HMPLDISDDSKAVLKLLKNDSNELNTVKSASGLSNKKWDKTIKELTKNKIVSVSKTEDGLYIHLI  0.202
10. HMASANMPDVLGLDAETAKQVLAAKGFTKVEIYPMESSEPANRVVRQSEDRDTMVALTKEILLGVSNGS  0.186
11. HMDDTVILPIQINGKRRAEISVPKAMPASEVEKLALANEDVLRFLAGQPIKKLIVVPGRIINVV  0.179
12. HMSAPLKELGNDPESGKPIVVKDGRFGAYVTDGETNATLRKTDAVESLTPERAAELLAEKRAKG  0.168
13. HMRTPTGVQAYLSSGLIKGIGEKTAAAIVDKFGTDALSVIETDPERLLEIPGITPNKLREILESYNQH  0.141
14. HMDTNVKLLSPKQADFFASKLANNQNFSSKFAKVGEDMQPFIERISSELQQDISQVIVYMPYLLESGFKQ  0.0782
15. HMEELTDSELNNLYRELFIARSNASDGVGIIEQKTIKGITYRLSNDNNYLIKELGNKEYIYKNGVWEEYT  0.0711
16. HMSNATELVYDDGRKLLISYETLVGGYHPDLGWIRTAKTYSISTDKHIRNYFNNVTNPRVVGEDILETLKI  0.0667
17. HMADYYETLGVERTASEEDIKRAYRKMSRKYHPDIAGPEFEEKFKEVNTAYEVLSDPDKRRMYDAGVDPND  0.0489
18. HMKRTRLEEAMDWLREQLNDGPVAYATLKDEAPKAEITLSTLRAAGEALRVDKQKKGVQWGGWTWSLPR  0.0438
19. HMGEGIRIDSTAVVQVGEKMYAYLGGDGFSKEFWTNLPASGELAVTLKFEPIPMDAESLDFYEMPA  0.0315
20. HMSAEGPALADWVVRDAHSIGAKITNSVAQLLIDRVGHNQQLLHNELQKLALVQTDISAELVKTMSHY  0.0302
21. HMGAQINSPISGTILKYLVKNGDKITKDQPLVNIESMKMENTIKSDKEGIVNNINFKIGDSVNTADTLLTL  0.0243
22. HMGPTLSPAEKRVFEVIPYDAILQDMVIRAAELPPGEVLAALTTLELKGLIKRLPGNLVMRRAR  0.0188
23. HMELTDSLTENAKKLYSVLTTEPRHIDDLSEEAKLSSADTLAALTELELYSLVALSEGKHYYK  0.00954
24. HMKSNNPLDHVRVKQRGASWAYYFEKAKVDGKRRRGEGGGYATEQDARMAGVEAYNAYIGGGAK  -0.0068
25. HMTSQVTVHVVGAVEKPGVVTLDAPSRVQDALEAAGGALPEAELSGVNLARELFDGEQIVVPAQGEDV  -0.0113
26. HMPTITIQRGIILSSTTKGFIDELSHSQIKNAIVERLGEHHVMIHESQLDAVIKYAQKKEAVINIYL  -0.0325
27. HMTAMQYVTIKDIADALGISKSSVSRALAGDVHNVSAQTIERVRAKALEMGYLRNNAAVNLR  -0.0718
28. HMLADEPTGALDSKTSVQIMALLTEIAQDRLVIMVTHNPELADEYATRIVNLRDGVISDDSDPFNP  -0.079
29. HMGQVPPLTRRETEIARLVSRGLSNKEIASTLVISPRTAEGHVEHILDKLGFSSRTQIATWLNEQTRNGK  -0.0938
30. HMEKNILPDTSPEKQYEFATSFLKVGDYSTAERAFREFVINNSEHKLAGNAQYWYAETFRIRQ  -0.101
31. HMKQMNETQQKAFEIYLDSATFETDYKPISEEQLAAKLDALGLKGSSSSINRWKKDFNWAQALQNKVTLAM  -0.11
32. HMSSVGELEVGNIFEGTVNSVRGGKVLLALGNGQMVLAQMDGRVNITPGSSMFFQVKSNDGETVAIRPYTG  -0.133
33. HMTDIDATSIERAVAKRRHFFLSNIQDLTMKMARRLIEKDLGLAPKHLDAAPFKTRITELVDAVIALGD  -0.165
34. HMDDENKIEVMINEEKVQLTGKDKYVFVDIFNYIDMDLTRIHGNLVLKLNGENASHNSLLKSGDKIEARWE  -0.181
35. HMNDQLIYSDFIRQVQDGQITEVTISGLNIAGTRSDGSVFNTLRPYIEDPKLIDDLLSHNVRIQGAE  -0.2
36. HMGKAVTLEEARAIIQAKVPGASPDMIQIWEEHGDGRGRYEGELSYNNMKYEFEMDPKTGIIFDWNA  -0.224
37. HMQEPNYQPLMQNIKSQDLEEVTRLLSLNDVKFKIDHRTGLLLVESSRVYEAKMKLAATGITD  -0.224
38. HMIESVMVGIKELLGDTIDQKYEKYIRLGGIPSDEVDEFNSVFSAYEKVNGNHNGKKKYDYVMNNLPIIPV  -0.26
39. HMPEPMKLSDLPPELWQRVSDLFDEVIDLPETDRIPYIRNLWGSEPLVAKELMALLVAAANVD  -0.274
40. HMKLEKKWIEAVEKYRRYVLSTGIKHVQKPIEFENFRLGQWYADVRQSYRRGTLSKEKLLEIREINPDFPN  -0.276
41. HMDSKYLRIFSTLIDEMEKMSPGEQLQSERELSQRFQVSPMTVRRALHKLSTEGYTSAIPGKGTFVRK  -0.307
42. HMINYYELLKLDMNAAHEEINDAIKLESEKNTIPEDQIRTMKSIFFNTEFKKEYDQRLMNFLLT  -0.319
43. HMTGKVSHGERKSVLVSLAGSMRARGMSIDAVRAGLYADNEKRFDPPLDERDIEDVLNSAKKWGDP  -0.322
44. HMVYLPGEEIPLKIIQEGKESGQGVGYLEDGTMVVVENGRRYLNQEVLVQVTKILQTNAGRLIFAVP  -0.346
45. HMQADTATITGNGVNMRSGPGTNYQIIDTIPKGTVAEVLSQQDGWVKIYSARISGWVSASYVEIKQT  -0.356
46. HMPRRSYLDARKKLLGMLNSPDFNSGDQIPAERELSEVLGISRVTVRKIITELIDEGVLERRGNQGTWLVD  -0.378
47. HMDYNLTKNQKIVFNLLQNSGEPLKAYTILESLKREGLKSPLQVYRALDKLVELGIIHKIESQNSFI  -0.45
48. HMEFLDLEIDVDATDGRLLAFLAAKGEVVSQTFNDTIITVRVRMPTGAMGQVHRSALAIRPA  -0.507
49. HMGNHMSFKMWGEQLQEAFRALETYDTQKAKTILNELVRFPIDSDITKALKGIISNIDDMMA  -0.535
50. HMSVEVADITRAYYEGVGFEWWIRSVRLDPNELIVDNDDEGKLYRVPFEINGEEVTFGDPVEVKIRYE  -0.541
51. HMQRDDMQIDRLIQIVFLLLSRNNLTAKQLAEELGVSTRTIYRDINILSVAGIPITSQKGYGGGLSLLQG  -0.62
52. HMNKPLFVYPNPVHQGKINLSKATNFMVVDLLGQTVNKTNYGKDFSIDNLPNGVYFIKTTEGEIIKFMK  -0.696
53. HMVDIEQAEFLSRQFDLLLARLDDPTIEWQDIADIRSEYTGENEHRDTIRKGSKLFYEYLQAGWIKN  -0.748
54. HMKASTRELLDFVLSQRGVSTASVAKALGISVQNASTRLKKLSNEGLIIRSEASSLTGGIEFLYS  -0.799
55. HMATPKYMELVRWINEQIESKNLVPGQKMYSENTLKEMFGVSRQTVRHAIGVLENEGVIRRIQGSGTYIN  -0.829
56. HMPAPAPDIPYHSRVSVRRADGFYEGTWTNTAPILDYTGRWMVNVSLGGKRVFVPVEEVVVH  -0.862
57. HMIVMPELRGKDLKEAERLLSSHNLRYELVDSVYDKSLAPGVVVEMVPQSGNTVKPGRIIFLSINA  -0.878
58. HMRQVFPNPSSSQIKLASSRIGQAFSILDQQGRVVLSGKVSEEAVIALENLAKGIYVLKIGSWSETILK  -0.903
59. HMNEWSIDINLADEKQWTAKTKLSPAIIQNIIRYKNYLGGFTNLNQIKKVYGFTEANYYLLKPHLQLGK  -0.909
60. HMQADKYKSYTATDFLKDKDFLRWQLFNGEEDMLFWGRVIEEYPALRSRVEEGIVLYKDNIR  -0.981
61. HMPLLSPRQLDVLSLAAGGLSDAQIAGRLVLSESTVRVHFHHIIEKLGVTDRAGAIAWYEQSRS  -1.03
62. HMEVFGDTKEEQMIIDILKLGITDLEHLQAKSMLEPAIFSQTLTMLEISGKIRPLGAGHWTL  -1.04
63. HMGLSARIAQRIHGLRTAQRMSLEALAARSGVSRSMISLIERNEASPTAVVLEKIATGLNVVLAALFDTP  -1.29
64. HMQDVWEPFLAKGYVFADGMLTKLIHKRGDVYKTQEIGSDKIIYVIKDGDTFAHGKTVKAAMLDLAFKKS  -1.29
65. HMFSMKDFGQRLRQLRKERGLTQGDLARLAKIDIMQVSRYERGLGLPSLETAIALARVLETSTDLLFLG  -1.46
66. HMAYRLDVRNQTKGTYLVIQKKYWDKEKKQSRTKHHMSLGYVHDLQKLYSDPITHYKEVINQMNAEEKG  -1.54
67. HMEVKSGFVHLTGAVKSPGVYPISIGMRLFEVIALAGGFTAKADRESVNLARTVTDGEQIIVSGSG  -1.7
68. HMVTLQEVKQYLRIDFEEEDPLLLSLLATAKQQVMNVGRMDEAQLSEHEDTARTAILYAVSYLYENRN  -1.85
69. HMLSDFHLNHDSIVNHTVQKKETIFSLSKKYGLSINEIIKANPGIQIDKLKRRSILIIPLRKK  -1.9
70. HMTMRFVVADGQNFGSIAQSKALEAVKKGNTEFNYKDVDYTVDIQSDDFYVVYQGRDIMGYASR  -2
71. HMKKLTNKQIIFFAEKLAHHSDFASKYSKVGESYEEFAIRLEKELNTPQKVEFYSSYLEKVGFK  -2.14
72. HMNDENIIIEEIKYFIKSNQIKEQEKLPSERNLSELFTVSRFSLRKALRHLVDTGYLYVKDKSGYYYQGD  -2.47
73. HMSLYGGYEIDIIKEEVVDAGIKLLRRRVIVADQRGISVYEGKPTFASDDQVLIKEGQYQIDKLG  -2.63
74. HMHPLFRVVLAGEPNGVGLDDWLTRHEAELINGPSAIGVLTVKIAMGRRSFETVLDEIRADGETIFVEPV  -2.66
75. HMKDMWNRIRRARLSAGLSQAALAKETGVRRSAVTQWEKEGGTSPSVANLARIAVVTQVHFEWLATGRGPG  -2.67
76. HMTDYREILRLLSLGLSRTQIADSLNVSRTTVIHTLQRAVAQELDWQTAEGMSDRELVAKLFPV  -3.47
